# Results reported in patent publication US10500249B2, “Compositions and methods for preventing or treating diseases, conditions, or processes characterized by aberrant fibroblast proliferation and extracellular matrix deposition” (MOERAE MATRIX, INC., priority 2014, dated 2019).
# What was measured:
# Assay in all cases: Kinase Profiling Assay
# Assay type in all cases: biochemical
# Conditions in all cases: 100 μM
# Aurora-B (h) = Aurora-B (h) (Homo sapiens, UniProt Q96GD4)
# How it was run: (§1)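 Duplicate wells; [radiolabeled] ATP phosphate onto cationic substrate; filter capture (negatively charged membrane); scintillation count; % of 100% activity control. Selectivity screen of MK2 peptide inhibitors, 266 human kinases.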
# CDK9/cyclin T1 (h) = molecular target: T1, CDK9/cyclin T1 (h) (Homo sapiens, UniProt P50750)
# T1 construct: purchased Millipore
# T1 sequence (P50750 whole entry): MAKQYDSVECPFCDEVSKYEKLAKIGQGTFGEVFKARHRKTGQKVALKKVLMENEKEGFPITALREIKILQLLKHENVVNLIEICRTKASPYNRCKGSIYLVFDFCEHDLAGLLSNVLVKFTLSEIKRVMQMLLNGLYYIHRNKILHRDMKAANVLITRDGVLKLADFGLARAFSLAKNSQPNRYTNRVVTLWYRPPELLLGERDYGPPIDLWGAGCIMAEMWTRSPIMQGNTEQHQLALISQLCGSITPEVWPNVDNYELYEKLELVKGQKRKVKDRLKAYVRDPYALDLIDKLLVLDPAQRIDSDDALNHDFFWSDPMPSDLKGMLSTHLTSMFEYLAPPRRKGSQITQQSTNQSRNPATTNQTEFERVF
# T1 sequence (O60563 whole entry partner): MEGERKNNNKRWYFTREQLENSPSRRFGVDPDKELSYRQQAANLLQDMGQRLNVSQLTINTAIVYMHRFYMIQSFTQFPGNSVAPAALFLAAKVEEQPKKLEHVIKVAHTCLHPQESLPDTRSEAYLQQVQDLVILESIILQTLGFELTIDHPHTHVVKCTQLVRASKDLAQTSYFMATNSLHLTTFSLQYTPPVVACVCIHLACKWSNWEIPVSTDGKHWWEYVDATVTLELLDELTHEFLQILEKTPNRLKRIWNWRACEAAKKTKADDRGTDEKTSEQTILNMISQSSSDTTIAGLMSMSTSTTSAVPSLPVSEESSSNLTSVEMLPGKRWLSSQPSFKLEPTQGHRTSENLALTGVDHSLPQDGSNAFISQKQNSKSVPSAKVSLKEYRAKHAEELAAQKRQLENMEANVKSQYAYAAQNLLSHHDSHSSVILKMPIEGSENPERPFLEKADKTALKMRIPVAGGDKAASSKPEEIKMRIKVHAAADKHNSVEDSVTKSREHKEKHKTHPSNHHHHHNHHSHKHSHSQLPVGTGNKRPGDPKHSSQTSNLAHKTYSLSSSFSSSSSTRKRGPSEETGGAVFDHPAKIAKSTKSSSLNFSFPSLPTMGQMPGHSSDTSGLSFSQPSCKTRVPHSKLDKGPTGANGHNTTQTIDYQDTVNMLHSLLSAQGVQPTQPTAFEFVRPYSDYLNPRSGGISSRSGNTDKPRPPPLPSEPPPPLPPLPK
# How it was run: as §1
# EphA3 (h) = molecular target: T2, EphA3 (h) (Homo sapiens, UniProt P29320)
# T2 construct: purchased Millipore
# T2 sequence (P29320 21-983): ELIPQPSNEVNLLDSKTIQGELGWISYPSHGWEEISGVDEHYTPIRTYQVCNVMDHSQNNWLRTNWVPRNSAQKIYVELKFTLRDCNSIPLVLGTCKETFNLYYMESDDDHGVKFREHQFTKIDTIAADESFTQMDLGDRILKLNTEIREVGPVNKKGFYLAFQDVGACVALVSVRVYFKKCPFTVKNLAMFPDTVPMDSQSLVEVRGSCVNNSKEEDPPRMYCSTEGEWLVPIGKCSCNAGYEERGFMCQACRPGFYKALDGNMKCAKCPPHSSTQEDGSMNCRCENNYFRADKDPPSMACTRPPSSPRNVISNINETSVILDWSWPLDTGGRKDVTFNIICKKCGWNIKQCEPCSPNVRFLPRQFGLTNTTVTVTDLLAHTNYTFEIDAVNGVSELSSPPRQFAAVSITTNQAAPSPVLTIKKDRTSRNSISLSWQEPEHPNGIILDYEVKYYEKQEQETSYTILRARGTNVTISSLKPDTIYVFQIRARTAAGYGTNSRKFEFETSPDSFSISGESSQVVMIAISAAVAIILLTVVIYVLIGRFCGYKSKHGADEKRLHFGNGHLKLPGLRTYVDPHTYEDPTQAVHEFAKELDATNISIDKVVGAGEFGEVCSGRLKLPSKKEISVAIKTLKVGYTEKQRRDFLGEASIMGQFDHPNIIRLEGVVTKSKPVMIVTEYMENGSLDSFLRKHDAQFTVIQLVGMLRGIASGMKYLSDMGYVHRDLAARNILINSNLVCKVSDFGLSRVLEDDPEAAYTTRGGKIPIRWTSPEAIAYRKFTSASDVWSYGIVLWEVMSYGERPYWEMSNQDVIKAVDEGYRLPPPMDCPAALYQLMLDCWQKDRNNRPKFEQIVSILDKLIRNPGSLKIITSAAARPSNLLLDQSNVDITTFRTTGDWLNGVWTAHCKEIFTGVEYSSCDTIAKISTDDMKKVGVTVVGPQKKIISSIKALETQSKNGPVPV
# How it was run: as §1
# EphB2 (h) = molecular target: T3, EphB2 (h) (Homo sapiens, UniProt P29323)
# T3 sequence (P29323 19-1055): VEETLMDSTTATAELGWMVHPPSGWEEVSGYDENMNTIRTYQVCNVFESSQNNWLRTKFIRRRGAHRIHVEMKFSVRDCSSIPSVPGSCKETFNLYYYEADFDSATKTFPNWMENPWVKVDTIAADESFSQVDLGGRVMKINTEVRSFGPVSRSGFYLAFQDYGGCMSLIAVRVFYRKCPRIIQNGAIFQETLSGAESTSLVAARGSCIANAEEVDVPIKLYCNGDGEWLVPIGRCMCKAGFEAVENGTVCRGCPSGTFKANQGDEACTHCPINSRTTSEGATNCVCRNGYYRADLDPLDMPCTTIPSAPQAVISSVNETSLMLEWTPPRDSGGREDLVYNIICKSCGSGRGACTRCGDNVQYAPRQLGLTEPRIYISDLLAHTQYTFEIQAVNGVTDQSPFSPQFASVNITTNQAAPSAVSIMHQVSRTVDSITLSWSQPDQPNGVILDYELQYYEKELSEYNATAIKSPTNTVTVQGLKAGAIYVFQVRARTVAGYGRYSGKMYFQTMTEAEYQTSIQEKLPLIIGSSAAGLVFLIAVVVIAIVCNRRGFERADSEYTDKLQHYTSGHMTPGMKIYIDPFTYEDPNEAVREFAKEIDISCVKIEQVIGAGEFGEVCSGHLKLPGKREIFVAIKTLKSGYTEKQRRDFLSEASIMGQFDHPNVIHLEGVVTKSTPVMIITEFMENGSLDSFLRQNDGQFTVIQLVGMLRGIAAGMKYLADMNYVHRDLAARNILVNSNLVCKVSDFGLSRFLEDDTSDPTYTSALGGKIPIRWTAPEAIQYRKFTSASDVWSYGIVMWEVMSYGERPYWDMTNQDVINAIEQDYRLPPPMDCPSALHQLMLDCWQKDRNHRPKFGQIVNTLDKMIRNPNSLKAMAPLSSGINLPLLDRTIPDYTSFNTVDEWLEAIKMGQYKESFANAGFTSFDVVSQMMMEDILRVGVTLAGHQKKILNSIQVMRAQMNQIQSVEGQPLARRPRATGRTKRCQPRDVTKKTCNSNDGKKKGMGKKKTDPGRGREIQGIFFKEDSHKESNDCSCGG
# How it was run: as §1
# GSK3β (h) = molecular target: T4, GSK3β (h) (Homo sapiens, UniProt P49841)
# T4 construct: purchased Millipore
# T4 sequence (P49841 whole entry): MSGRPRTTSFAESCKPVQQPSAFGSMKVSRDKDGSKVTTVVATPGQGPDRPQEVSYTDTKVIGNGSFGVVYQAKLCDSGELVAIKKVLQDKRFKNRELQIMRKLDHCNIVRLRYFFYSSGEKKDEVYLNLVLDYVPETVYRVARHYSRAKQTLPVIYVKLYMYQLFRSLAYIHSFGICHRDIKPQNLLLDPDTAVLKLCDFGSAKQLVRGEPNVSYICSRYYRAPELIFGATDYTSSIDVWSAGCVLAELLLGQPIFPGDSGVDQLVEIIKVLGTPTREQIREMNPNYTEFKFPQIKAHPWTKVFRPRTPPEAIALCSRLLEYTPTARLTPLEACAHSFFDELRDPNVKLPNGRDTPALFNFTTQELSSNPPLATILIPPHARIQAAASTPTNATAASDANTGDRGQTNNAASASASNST
# How it was run: as §1
# JNK2α2 (h) = JNK2α2 (h) (Homo sapiens, UniProt P45984)
# How it was run: as §1
# NEK7 (h) = molecular target: T5, NEK7 (h) (Homo sapiens, UniProt Q8TDX7)
# T5 construct: purchased Millipore
# T5 sequence (Q8TDX7 whole entry): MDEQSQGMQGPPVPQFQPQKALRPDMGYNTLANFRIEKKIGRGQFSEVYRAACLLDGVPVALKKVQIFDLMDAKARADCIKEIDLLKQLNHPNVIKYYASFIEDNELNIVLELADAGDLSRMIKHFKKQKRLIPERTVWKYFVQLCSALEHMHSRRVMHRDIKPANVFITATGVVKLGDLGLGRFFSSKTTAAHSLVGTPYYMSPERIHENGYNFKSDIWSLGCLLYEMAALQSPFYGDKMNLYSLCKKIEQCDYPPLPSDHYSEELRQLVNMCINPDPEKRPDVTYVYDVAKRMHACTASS
# How it was run: as §1
# PKCα (h) = molecular target: T6, PKCα (h) (Homo sapiens, UniProt P17252)
# T6 construct: purchased Millipore
# How it was run: as §1
# Syk (h) = Syk (h) (Homo sapiens, UniProt P43405)
# How it was run: as §1
# PKCη (h) = PKCη (h) (Homo sapiens, UniProt P24723)
# PKCη (h), sequence (P24723 whole entry): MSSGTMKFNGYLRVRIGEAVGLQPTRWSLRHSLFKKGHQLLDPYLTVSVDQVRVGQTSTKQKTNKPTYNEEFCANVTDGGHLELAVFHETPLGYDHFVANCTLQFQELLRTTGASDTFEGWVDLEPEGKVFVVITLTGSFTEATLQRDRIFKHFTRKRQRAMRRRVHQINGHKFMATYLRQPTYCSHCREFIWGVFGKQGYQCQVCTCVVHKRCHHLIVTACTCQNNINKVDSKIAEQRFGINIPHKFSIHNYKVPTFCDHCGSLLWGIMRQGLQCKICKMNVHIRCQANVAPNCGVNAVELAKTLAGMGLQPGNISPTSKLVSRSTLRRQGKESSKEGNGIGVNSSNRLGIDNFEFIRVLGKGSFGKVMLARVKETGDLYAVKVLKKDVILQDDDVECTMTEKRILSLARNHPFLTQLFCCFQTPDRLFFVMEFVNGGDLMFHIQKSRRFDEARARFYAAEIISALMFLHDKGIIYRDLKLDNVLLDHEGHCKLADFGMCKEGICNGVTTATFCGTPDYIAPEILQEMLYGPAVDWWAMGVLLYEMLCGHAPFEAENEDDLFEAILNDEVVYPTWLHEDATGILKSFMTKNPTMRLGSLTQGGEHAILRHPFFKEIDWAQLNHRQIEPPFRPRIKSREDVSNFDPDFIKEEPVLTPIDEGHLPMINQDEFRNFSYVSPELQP
# How it was run: as §1
# Aurora-B (h), sequence (Q96GD4 whole entry): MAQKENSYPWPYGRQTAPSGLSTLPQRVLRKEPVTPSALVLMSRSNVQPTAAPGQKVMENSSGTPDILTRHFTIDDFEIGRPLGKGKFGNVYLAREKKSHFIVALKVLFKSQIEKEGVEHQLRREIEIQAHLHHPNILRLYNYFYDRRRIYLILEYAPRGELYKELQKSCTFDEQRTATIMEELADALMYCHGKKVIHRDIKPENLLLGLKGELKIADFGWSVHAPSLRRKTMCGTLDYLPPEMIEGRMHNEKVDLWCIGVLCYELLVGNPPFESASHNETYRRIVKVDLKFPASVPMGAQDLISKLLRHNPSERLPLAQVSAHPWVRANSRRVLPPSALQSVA
Sequence,% activity (Aurora-B (h)),% activity (CDK9/cyclin T1 (h)),% activity (EphA3 (h)),% activity (EphB2 (h)),% activity (GSK3β (h)),% activity (JNK2α2 (h)),% activity (NEK7 (h)),% activity (PKCα (h)),% activity (Syk (h)),% activity (PKCη (h))
FAKLAARLYRKALARQLGVAA [MMI-0300],128%,91%,6%,18%,205%,98%,84%,89%,24%,
HRRIKAWLKKIKALARQLGVAA (Mammalian) [MMI-0500],5%,6%,33%,70%,238%,81%,89%,3%,5%,45%
KAFAKLAARLYRKALARQLGVAA [MMI-0400],150%,235%,12%,22%,202%,96%,87%,86%,9%,98%
YARAAARQARAKALNRQLGVA (Mammalian) [MMI-0200],166%,,,128%,132%,,96%,100%,36%,101%
